According to patent US20240336683A1 (published 2024):

T1: full-length human Siglec15 with C-terminal flag and Myc tags on HEK293 cells (human, UniProt Q6ZMC9 20-328)
T1 construct: whole, on cells; also called Siglec15/HEK293; HEK293-Siglec 15; not shown: C-terminal flag and Myc tags from pCMV6-Entry vector
T1 sequence (looked up): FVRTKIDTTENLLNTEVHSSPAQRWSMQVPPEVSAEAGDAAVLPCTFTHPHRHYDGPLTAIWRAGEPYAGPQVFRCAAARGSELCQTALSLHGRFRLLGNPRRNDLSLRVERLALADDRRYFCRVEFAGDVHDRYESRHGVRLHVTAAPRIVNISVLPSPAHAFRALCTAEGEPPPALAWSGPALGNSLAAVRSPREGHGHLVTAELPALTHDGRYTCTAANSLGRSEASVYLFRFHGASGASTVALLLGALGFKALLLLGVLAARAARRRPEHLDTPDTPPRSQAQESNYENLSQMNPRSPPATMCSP

T2: human Siglec15-Fc fusion protein (human, UniProt Q6ZMC9 20-263)
T2 construct: Bought protein (Acro #SG5-H5253 is named for the selection); also called recombinant Siglec 15-Fc fusion protein (Acro #SG5-H5253); human Siglec15-Fc protein; not shown: Fc part of the bought fusion protein
T2 sequence (looked up): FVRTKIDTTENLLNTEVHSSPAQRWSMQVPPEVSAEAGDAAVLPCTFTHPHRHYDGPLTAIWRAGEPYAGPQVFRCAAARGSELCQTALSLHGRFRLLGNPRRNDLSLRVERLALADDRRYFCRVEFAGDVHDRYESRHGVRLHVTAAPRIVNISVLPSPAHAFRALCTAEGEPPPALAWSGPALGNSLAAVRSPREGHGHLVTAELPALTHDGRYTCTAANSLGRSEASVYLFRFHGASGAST

B1: 2019EP47-A02 scFv (scFv, V domains shown)
VH: EVQLVQSGGGVVQPGRSLRLSCAASGFTFSSYAMHWVRQAPGKGLEWVAVISYDGSNKYYADSVKGRFTISRDNSKNTLYLQMNSLRAEDTAVYYCARSRYSSSLRRYYGMDVWGQGTTVTVSS
VL: AIQLTQSPSSLSASVGDRVTITCQATHDIANYLNWYQQKPGKAPKLLIYAASNLETGVPSRFSGSGSGTDFTFAISSLQPEDIAVYYCQQYDNLPLTFGGGTKVEIK
notes: Tested as a single-chain scFv made in E. coli with a C-terminal flag and 6x His tag
B2: 2020EP083-G11 scFv (scFv, V domains shown)
VH: EVQLVESGGGLVEPGGSLRLSCAASGFTFSSYSMSWVRQAPGKGLEWVGRIKSETDGGTTDYAGPAKGKFIISRNDAENTVSLQMNSLKFEDTAVYHCTTDSSSSWFSYSFDNWGQETLVTVSS
VL: EIVMTQSPATLSVSPGERATLSCRASQNVNSNLAWYQQKTGQAPRLLIFGASTRATGIPARFSGSGSGTEFTLTIGSLQSEDFAVYYCQQYNNWPPTFGGWTKVEIK
notes: as for B1
B3: 2020EP083-H01 scFv (scFv, V domains shown)
VH: QLQLQESGPGLVKPAETLSLTCTVSGGSVSSGDNLWDWIRQPPGKGLEWIGSIRDSGNPAYNPSLRSRVTISADTSTDQFSLKLTSVTAADTAVYYCARHSDGGYGKIYGMDVWGQGTTVTVSS
VL: DIQLTQSPSFLSASVGDRVTITCRASQAVSTYLVWYLQKPGQAPRLLIYAASTLQSGVPSRFSGSGSGTDFTLTISRLQPEDAGTYFCQQLNSNALVFGGGTKVDIK
notes: as for B1
B4: 2020EP085-G5 scFv (scFv, V domains shown)
VH: QVQLVQSGAEVKKPGASVKVSCKASGYTFTDYYMHWVRQAPGQGLEWMGWINPNSGGTNYAQKFQGRVTMTRDTSITTAYMELSWLRSDDTAVYYCAREVGTTTTGVDYWGQGTLVTVSS
VL: VIWMTQSPSSLSASVGDRVTFTCQASQDINIYLTWYQIKPGKAPKVLIYDASTLESGVPSRFSGSGFGTHFVFTISSLQPEDFATYYCQHYDSLPLTFGGGTKVEIK
notes: as for B1
B5: 2019EP47-A05 scFv (scFv, V domains shown)
VH: QMQLVQSGAEVKKPGSSVKVSCKASGGTFSSYAISWVRQAPGQGLEWMGRIIPILGIANYAQKFQGRVTITADKSTSTAYMELSSLRSEDTAVYYCAVNTYYYDSSGYYYEYFDYWGQGTLVTVSS
VL: EIVLTQSPSSLSASVGDRVTITCQASQHINNHLNWYQQKPGKGPKLLIYDVSNLEAGVPSRFSASGSGTDFSFTISSLQPEDFATYYCQQYDSLPLTFGQGTKVEVK
notes: as for B1
B6: 2020EP032-A08 scFv (scFv, V domains shown)
VH: QVQLQQWGAGLLKPSETLSLTCAVYGGSFSGYYWSWIRQPPGKGLEWIGEINHSGSTNYNPSLKSRVTISVDTSKNQFSLKLSSVTAADTAVYYCARGVYYYDSSGPRDYFDYWGQGTLVTVSS
VL: DIVMTQSPSSLSASVGDRVTITCQASQDISNYLNWYQQKPGKAPKLLIYDASNLKTGVPSRFSGSGSGTDFTFTITSLQPEDIGTYFCQQYGNLPYTFGQGTKLEIK
notes: as for B1
B7: 2019EP47-A10 scFv (scFv, V domains shown)
VH: QMQLVQSGGGVVQPGRSLRLSCAASGFTFSSYGMHWVRQAPGKGLEWVAVISYDGSNKYYADSVKDRFTISRDNSKNTLYLQMNSLRAEDTAVYYCAKDIVGDSGSYPIYYYYGMDVWGQGTTVTVSS
VL: SQSALTQPHSVSESPGKTVTISCTRSSGSIASNYVQWYQQRPGSAPSTVIYEDNQRPSGVPDRFSGSVDISSNSASLTISGLQTEDEADYYCQSYDNDNMVFGGGTKLTVL
notes: as for B1
B8: 2020EP032-A12 scFv (scFv, V domains shown)
VH: QMQLVQSGGGVVQPGRSLRLSCAASGFTFSSYGMHWVRQAPGKGLEWVAVISDDGSNKYYADSVKGRFTISRDNSKNTLYLQMNSLRAEDTAVYYCAKKDVATILFDNWGQGTLVTVSS
VL: VIWMTQSPSTLSASVGDRVTITCRASQSITRWLAWYQQKPGKAPKLLIYKTSDLDGGVPSRFSGSESGAEFTLTISSLQPDDVATYFCQHYNTRSWTFGQGTKVELK
notes: as for B1
B9: 2020EP032-B03 scFv (scFv, V domains shown)
VH: QVQLQQWGAGLLKPSETLSLTCAVYGGSFSGYYWSWIRQPPGKGLEWIGEINHSGSTNYNPSLKSRVTISVDTSKNQFSLKLSSVTAADTAVYYCARGPLRKYYDFWSGSRNYYYYGMDVWGQGTTVTVSS
VL: QPVLTQDPAVSVALGQTVRITCQGDSLRSNYASWYQLKPGQAPVLVIYDKNNRPSGIPDRFSGSNSGNTASLTIAGAQAEDEADYYCTSRDSSGTVFGGGTKLTVL
notes: as for B1
B10: 2020EP032-C09 scFv (scFv, V domains shown)
VH: QVQLVESGGGLVKPGGSLRLSCAASGFSFNNAWMSWVRQAPGKGLEWVGRIKSKTDDATTEYAAPVEGRFTISRDDSKNMLYLQMDSLKTEDTAVYYCTTDLRWEELPMYWGQGTLVTVSS
VL: VIWMTQSPSSLSASVGDRVTITCRASQGIRNDLGWYQQKPGKAPKVLIYAASSLQSGVPSRFSGSGSGTDFTLTISSLQPEDFATYYCLQDYNYPQTFGQGTKVGIKR
notes: as for B1
B11: 2019EP47-C12 scFv (scFv, V domains shown)
VH: EVQLVESGGGLEKPGRSLRLSCTASGFTFGDYAMSWFRQAPGKGLEWVGFITTKPYGGTTEYAASVKGRFTISRDDSKSIAYLQMNSLKTEDTAEYYCTKDSEAYYGSGSYMVGYWGQGTLVTVSS
VL: QSVLTQPPSVSLAPGKTATITCGGDNIENKDVHWYQQKPGQAPVLVIRFAADRPSGIPERFSGSSSGNTATLTISRVEAGDEADYYCQVWQSTRDHPVVVFGGGTKLTVL
notes: as for B1
B12: 2020EP032-H11 scFv (scFv, V domains shown)
VH: EVQLVESGGGLVKPGGSLRLSCAASGFTFSSYSMNWVRQAPGKGLEWVSSISSSSSYIYYADSVKGRFTISRDNAKNSLYLQMNSLRAEDTAVYYCARDYRGYSGQNYYGMDVWGQGTTVTVSS
VL: QSALTQPPSVSAAPRQKVTISCSGSSSNIGNNDVSWYQQLPGTVPKLLIYDNNKRPSGIPDRFSGSKSGTSASLGITGLQTGDEADYYCGVWDSSLSGYVFGTGTKVTVL
notes: as for B1

Each binder was assayed against T1, full-length human Siglec15 with … (assay: FACS on Siglec15/HEK293 cells, scFv, anti-His detection).
Description: […] Cells were spun down at 1200 rpm for 5 minutes at 4° C. to remove primary antibodies. Cells were then washed once with 200 uL of full medium per well. Samples were detected with premixed anti-His Biotin Streptavidin Alexa fluor 647 by adding 100 uL of diluted secondary antibody and incubated at 4° C. for 30 minutes in the dark. Samples were spun down at 1200 rpm for 5 minutes at 4° C. and washed twice with 200 uL of 1×PBS per well. Samples were then reconstituted in 200 uL of 1×PBS and read on Attune NxT cytometer. Analysis was performed using Attune NxT software plotting the overlaying the histogram of anti-Siglec15 scFvs binding onto both negative and target cell lines.

Binder	EC50
B1	10.6 nM
B2	0.87 nM
B3	0.23 nM
B4	1 nM
B5	88.3 nM
B6	1.6 nM
B7	112 nM
B8	0.86 nM
B9	1.22 nM
B10	0.65 nM
B11	13.1 nM
B12	10.6 nM

The binders below were run against T2, human Siglec15-Fc fusion protein (assay: SPR Biacore T200; Siglec15-Fc captured on Protein A chip, scFv as analyte).
Description: Kinetic analysis of anti-Siglec15 scFvs were assessed by SPR technology with Biacore T200. The assay was run with Biacore T200 control software version 2.0. Protein A sensor chip was used to capture Fc fusion protein in the assay. For each cycle, 1 ug/mL of human Siglec15-Fc protein was captured for 60 seconds at flow rate of 10 ul/min on flow cell 2 in 1× HBSP buffer on Protein A sensor chip. 2-fold serial diluted HIS tag purified anti-Siglec15 scFv was injected onto both reference flow cell 1 and Siglec 15-Fc captured flow cell 2 for 150 seconds at flow rate of 30 ul/min followed by wash for 300 seconds. The flow cells were then regenerated with Glycine pH 2 buffer (GE) for 30 seconds at flow rate of 30 ul/mins. 8 concentration points from 300-0 nM was assayed per anti-Siglec15 scFv in a 96 well plate. The kinetics of scFvs binding to Siglec 15 protein was analyzed with Biacore T200 evaluation software version 3.0. The specific binding response unit was derived from subtraction of binding to reference flow cell 1 from Siglec15 captured flow cell 2.

Binder	Kd	koff	kon
B1	58.8 nM	0.00149 s⁻¹	28700 M⁻¹ s⁻¹
B2	1.12 nM	0.000356 s⁻¹	318000 M⁻¹ s⁻¹
B3	10.4 nM	0.00149 s⁻¹	143000 M⁻¹ s⁻¹
B4	10.9 nM	0.00144 s⁻¹	132000 M⁻¹ s⁻¹
B5	2.79 nM	7.77e-05 s⁻¹	27900 M⁻¹ s⁻¹
B6	18.1 nM	0.000842 s⁻¹	46400 M⁻¹ s⁻¹
B7	3.32 nM	6.02e-05 s⁻¹	18200 M⁻¹ s⁻¹
B8	2.26 nM	0.000294 s⁻¹	130000 M⁻¹ s⁻¹
B9	2.11 nM	0.000282 s⁻¹	134000 M⁻¹ s⁻¹
B10	25.1 nM	0.00169 s⁻¹	67600 M⁻¹ s⁻¹
B12	0.557 nM	0.000316 s⁻¹	567000 M⁻¹ s⁻¹

Each binder was assayed against T2, human Siglec15-Fc fusion protein (assay: ELISA; Siglec15-Fc captured by anti-hFc, scFv titrated, anti-Flag HRP).
Description: An ELISA assay was developed to determine the EC50 of anti-Siglec15 antibodies. Briefly, a 384 well plate was immobilized with anti-human Fc antibody at final concentration of 2 ug/mL in 1×PBS in total volume of 25 uL per well. The plate was incubated overnight at 4° C. followed by blocking with 80 uL of superblock per well for 1 hour. Human Siglec 15-Fc was captured through immobilized anti-hFc antibody. Purified anti-Siglec 15 scFvs were 2-fold serial titrated from 200 nM. 25 uL was added to human Siglec15 immobilized wells and incubated for 1 hour with shaking. The Siglec15 binding was detected by adding 25 uL of anti-Flag HRP diluted at 1:5000 in 1×PBST. In between each step, the plate was washed 3 times with 1×PBST in a plate washer. The plate was then developed with 20 uL of TMB substrate for 5 mins and stopped by adding 20 uL of 2 N sulfuric acid. The plate was read at OD450 nm Biotek plate reader and then plotted in Prism 8.1 software.

Binder	EC50
B1	21.9 nM
B2	1.29 nM
B3	2.54 nM
B4	3.3 nM
B5	3.35 nM
B6	5.87 nM
B7	2.5 nM
B8	0.544 nM
B9	1.78 nM
B10	6.07 nM
B11	9.97 nM
B12	0.567 nM
